Assay results from patent US20080274100A1 (published 2008).

Assays:
GPIb on human platelets [1] = target: T1, GPIb on human platelets (human, UniProt P07359 17-652); experiment: FACS on human platelets
T1 construct: whole, on cells; also called GPIbα; platelet GPIb

[2] = target: T2, platelet GPIb, guinea pig (guinea pig platelets) (guinea pig); experiment: FACS on guinea pig platelets
T2 construct: whole, on cells; also called guinea pig derived platelets

[3] = target: T3, CXCR4 point mutant Tyr-21 to alanine (UniProt P61073 1-352); experiment: epitope mapping with tyrosine-to-alanine point mutants of CXCR4
T3 construct: also called CXCR4 Y21A
T3 sequence (P61073 other isoform, or with tags, fused parts or gaps mutant limits assumed): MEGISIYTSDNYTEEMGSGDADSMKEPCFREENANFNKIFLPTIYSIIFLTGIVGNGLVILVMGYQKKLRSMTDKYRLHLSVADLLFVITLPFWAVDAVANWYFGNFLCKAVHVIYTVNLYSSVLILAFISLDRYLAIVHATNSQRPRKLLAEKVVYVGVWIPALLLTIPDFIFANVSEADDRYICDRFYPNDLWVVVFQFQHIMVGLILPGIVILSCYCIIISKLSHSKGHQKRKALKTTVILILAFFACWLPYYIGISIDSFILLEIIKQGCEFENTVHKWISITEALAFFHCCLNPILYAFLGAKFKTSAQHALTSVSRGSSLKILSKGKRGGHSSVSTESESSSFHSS

[4] = target: T4, human CCR5 on transfected L1.2 cells (human, UniProt P51681 1-352); experiment: flow cytometry, L1.2 cells transfected with human CCR5
T4 construct: whole, on cells
T4 sequence (P51681 whole entry): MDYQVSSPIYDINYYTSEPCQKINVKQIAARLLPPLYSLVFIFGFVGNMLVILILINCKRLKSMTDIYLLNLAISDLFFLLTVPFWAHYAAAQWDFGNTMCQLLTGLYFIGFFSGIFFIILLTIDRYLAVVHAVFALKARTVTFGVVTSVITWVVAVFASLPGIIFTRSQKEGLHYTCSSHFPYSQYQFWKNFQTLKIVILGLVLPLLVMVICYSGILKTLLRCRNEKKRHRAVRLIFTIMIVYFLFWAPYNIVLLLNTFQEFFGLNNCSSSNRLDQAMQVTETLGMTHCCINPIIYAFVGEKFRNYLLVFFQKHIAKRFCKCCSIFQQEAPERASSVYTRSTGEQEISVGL

GPIb on human platelets [5] = target: T1, GPIb on human platelets; experiment: cell-based or functional assay
glycocalicin = target: T5, glycocalicin (UniProt P07359 17-506); experiment: SPR (BIAcore 3000), glycocalicin immobilized on CM5 chip
T5 construct: domain: glycocalicin (the outer membrane portion derived from GPIb); also called purified glycocalicin; purified GPIbα
T5 sequence (P07359 17-506 limits assumed): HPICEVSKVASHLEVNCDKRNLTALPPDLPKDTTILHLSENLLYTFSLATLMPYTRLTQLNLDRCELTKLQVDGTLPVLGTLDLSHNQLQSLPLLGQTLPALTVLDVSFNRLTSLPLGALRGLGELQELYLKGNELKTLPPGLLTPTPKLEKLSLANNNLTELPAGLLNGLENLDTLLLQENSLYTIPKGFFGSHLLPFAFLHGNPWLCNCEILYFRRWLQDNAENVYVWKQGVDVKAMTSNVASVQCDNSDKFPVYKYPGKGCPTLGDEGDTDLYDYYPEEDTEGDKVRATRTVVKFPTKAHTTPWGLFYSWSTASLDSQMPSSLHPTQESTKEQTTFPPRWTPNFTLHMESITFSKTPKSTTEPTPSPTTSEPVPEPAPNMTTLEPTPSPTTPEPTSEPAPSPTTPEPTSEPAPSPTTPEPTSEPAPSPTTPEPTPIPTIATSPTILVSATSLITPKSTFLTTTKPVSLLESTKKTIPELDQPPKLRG

T1 sequence (P07359 17-652): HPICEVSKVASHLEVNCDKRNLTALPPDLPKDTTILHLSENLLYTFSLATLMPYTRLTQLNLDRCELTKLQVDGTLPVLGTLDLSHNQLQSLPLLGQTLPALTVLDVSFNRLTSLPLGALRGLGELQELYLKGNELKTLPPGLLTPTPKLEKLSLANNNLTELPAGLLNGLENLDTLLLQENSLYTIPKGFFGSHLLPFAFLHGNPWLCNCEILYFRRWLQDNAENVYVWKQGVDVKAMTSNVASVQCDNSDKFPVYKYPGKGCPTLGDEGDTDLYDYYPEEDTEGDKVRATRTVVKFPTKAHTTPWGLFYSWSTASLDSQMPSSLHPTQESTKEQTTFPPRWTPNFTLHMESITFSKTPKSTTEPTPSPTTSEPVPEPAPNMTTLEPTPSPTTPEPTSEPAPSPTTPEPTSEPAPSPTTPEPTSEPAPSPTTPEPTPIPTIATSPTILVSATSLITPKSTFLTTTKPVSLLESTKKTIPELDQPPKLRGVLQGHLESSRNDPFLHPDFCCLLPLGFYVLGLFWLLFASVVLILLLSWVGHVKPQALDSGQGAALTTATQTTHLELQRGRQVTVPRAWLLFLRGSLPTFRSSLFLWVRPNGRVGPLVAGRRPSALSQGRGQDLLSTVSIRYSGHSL

B1: D1 scFv (scFv)
scFv: EVQLVESGGGVVRPGGSLRLSCAASGFTFDLNPKVKHMWVRQAPGKGLEWVSGINWNGGSTGYADSVKGRFTISRDNAKNSLYLQMNSLRAEDTAVYYCARLRSPFGWGQGTLVTVSRGGGGSGGGGSGGGGSSELTQDPAVSVALGQTVRITCQGDSLRSYYASWYQQKPGQAPVLVIYGKNNRPSGIPDRFSGSSSGNTASLTITGAQAEDEADYYCNSRDSSGNHVVFGGGTKLTVLGAAAEQKLISEEDLNGAA
- fold binding capacity relative to Y1 (GPIb on human platelets [1]): ~25 fold
- fold binding capacity relative to Y1 [2]: ~25 fold

B2: S1 scFv (scFv)
scFv: EVQLVESGGGVVRPGGSLRLSCAASGFTFDLNPKVKHMWVRQAPGKGLEWVSGINWNGGSTGYADSVKGRFTISRDNAKNSLYLQMNSLRAEDTAVYYCARLRPPFLWGQGTLVTVSRGGGGSGGGGSGGGGSSELTQDPAVSVALGQTVRITCQGDSLRSYYASWYQQKPGQAPVLVIYGKNNRPSGIPDRFSGSSSGNTASLTITGAQAEDEADYYCNSRDSSGNHVVFGGGTKLTVLGAAAEQKLISEEDLNGAA
- fold binding capacity relative to Y1 [2]: ~25 fold

B3: S11 scFv (scFv)
scFv: EVQLVESGGGVVRPGGSLRLSCAASGFTFDLNPKVKHMWVRQAPGKGLEWVSGINWNGGSTGYADSVKGRFTISRDNAKNSLYLQMNSLRAEDTAVYYCARLRYPFFWGQGTLVTVSRGGGGSGGGGSGGGGSSELTQDPAVSVALGQTVRITCQGDSLRSYYASWYQQKPGQAPVLVIYGKNNRPSGIPDRFSGSSSGNTASLTITGAQAEDEADYYCNSRDSSGNHVVFGGGTKLTVLGAAAEQKLISEEDLNGAA
notes: also called scFv S11
- binding result [3]: no binding
- binding result [4]: binds
- fold binding capacity relative to Y1 (GPIb on human platelets [1]): ~25 fold
- fold binding capacity relative to Y1 [2]: ~25 fold

B4: Y1 scFv (scFv)
chain: EVQLVESGGGVVRPGGSLRLSCAASGFTFDDYGMSWVRQAPGKGLEWVSGINWNGGSTGYADSVKGRFTISRDNAKNSLYLQMNSLRAEDTAVYYCARMRAPVIWGQGTLVTVSRGGGGSGGGGSGGGGSSELTQDPAVSVALGQTVRITCQGDSLRSYYASWYQQKPGQAPVLVIYGKNNRPSGIPDRFSGSSSGNTASLTITGAQAEDEADYYCNSRDSSGNHVVFGGGTKLTVLGAAAEQKLISEEDLNGAA
- inhibition of ristocetin-induced, vWF-dependent platelet aggregation in washed platelets (IC50) (GPIb on human platelets [5]): 800 nM
- Kd (glycocalicin): 450 nM
- koff (glycocalicin): 0.12 s⁻¹
